Target: β-secretase (Homo sapiens, UniProt P56817)
Test: β-secretase cleavage of peptide substrates and peptide libraries followed by LC/MS
Assay type: biochemical
Conditions: for Relative rates of hydrolysis: hydrolysis by β-secretase, Swedish mutant EVNLDAEF (SEQ ID NO: 257) = 1, each peptide 1 μM, pH 4.5, 37° C.; for rate of hydrolysis by β-secretase, times faster than the Swedish mutant sequence (SEQ ID NO: 257): relative to Swedish mutant APP sequence, peptides incubated simultaneously with β-secretase; for rate of cleavage (depletion of full length substrate) of P1′ peptide library components: P1′ peptide library treated with β-secretase, FIG. 2; for formation of C-terminal cleavage products from the P1′ peptide library: FIG. 3
Method: Following synthesis and purification, each of the eight peptide libraries was incubated with the enzyme β-secretase and the relative rates of cleavage of each individual peptide library component was followed with liquid chromatography/mass spectrometry (LC/MS) with analysis of both the depletion of the full length peptide substrate, as well as the formation of peptide cleavage fragments. The enzyme β-secretase was incubated at concentrations ranging from 5 to 50 nM at pH 4.5 with each of the peptide libraries and/or mixtures of synthetic peptide substrates.
The mixtures of substrates and enzyme were incubated in an Agillent Technology 1100 series liquid chromatograph with a temperature controlled autosampler. The temperature for all β-secretase enzymatic assays was held constant at 37° C. A 100 μl aliquot of each reaction mixture was injected onto a 1×50 mm C18 reverse phase 1c column (Metachem Technologies Inc., Torrance, Calif.) every two hours to monitor reaction progress. After injection, a highly optimized solvent gradient was delivered to the column to maximize resolving power for each of the substrate library components. […] After the LC/MS run, the data were processed by selected-ion chromatograms for each of the peptide substrate library components by extracting 0.5 Da mass windows surrounding the calculated mass values of each of the peptides.

Sequence of β-secretase (P56817 46-501): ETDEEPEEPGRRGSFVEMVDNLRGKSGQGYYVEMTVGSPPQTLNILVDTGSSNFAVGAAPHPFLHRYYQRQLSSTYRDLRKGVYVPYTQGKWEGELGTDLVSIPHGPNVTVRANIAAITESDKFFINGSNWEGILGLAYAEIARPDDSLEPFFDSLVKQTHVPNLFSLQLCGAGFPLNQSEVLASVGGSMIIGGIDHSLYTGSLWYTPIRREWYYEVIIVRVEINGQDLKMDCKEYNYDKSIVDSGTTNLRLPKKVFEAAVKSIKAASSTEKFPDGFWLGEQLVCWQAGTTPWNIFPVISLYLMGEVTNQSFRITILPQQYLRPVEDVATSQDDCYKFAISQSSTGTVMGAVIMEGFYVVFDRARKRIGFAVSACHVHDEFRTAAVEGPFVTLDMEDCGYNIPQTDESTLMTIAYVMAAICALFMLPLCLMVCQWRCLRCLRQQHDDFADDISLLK

| Substance | Relative rates of hydrolysis | rate of hydrolysis by β-secretase, times faster than the Swedish mutant sequence (SEQ ID NO: 257) | rate of cleavage (depletion of full length substrate) of P1′ peptide library components | formation of C-terminal cleavage products from the P1′ peptide library |
| --- | --- | --- | --- | --- |
| EVNFAVEF (Beta-Secretase Cleavage Site) | 30 | roughly 30 times | – | – |
| EVNFEVEF (Beta-Secretase Cleavage Site) | 60 | 60 times | – | – |
| P1′=Glu: P1′ peptide library component: Swedish mutant APP 8-mer with Glu at P1′ (EVNLEAEF) | – | – | most rapidly hydrolyzed | more rapid and comparable rates of formation |
| P1′=Gly: P1′ peptide library component: Swedish mutant APP 8-mer with Gly at P1′ (EVNLGAEF) | – | – | not cleaved | – |

Continued, in another order:

| Relative rates of hydrolysis | rate of hydrolysis by β-secretase, times faster than the Swedish mutant sequence (SEQ ID NO: 257) | rate of cleavage (depletion of full length substrate) of P1′ peptide library components | Substance | formation of C-terminal cleavage products from the P1′ peptide library |
| --- | --- | --- | --- | --- |
| 17 | – | – | EVNFAAEF (Beta-Secretase Cleavage Site) | – |
| 17 | – | – | EVNFEAEF (Beta-Secretase Cleavage Site) | – |
| 1 | – | intermediate | EVNLDAEF (Beta-Secretase Cleavage Site) [8-mer of Swedish mutant APP around the β-secretase cleavage site, reference compound] | less conducive to β-secretase hydrolysis than either Glu or Ala |
| – | – | not cleaved | P1′=Pro: P1′ peptide library component: Swedish mutant APP 8-mer with Pro at P1′ (EVNLPAEF) | – |
